In PMC5137443:

What was measured:
Assay in all cases: filter binding
POT1 = target: T1, POT1 (Homo sapiens, UniProt Q9NUX5 1-634)
T1 sequence: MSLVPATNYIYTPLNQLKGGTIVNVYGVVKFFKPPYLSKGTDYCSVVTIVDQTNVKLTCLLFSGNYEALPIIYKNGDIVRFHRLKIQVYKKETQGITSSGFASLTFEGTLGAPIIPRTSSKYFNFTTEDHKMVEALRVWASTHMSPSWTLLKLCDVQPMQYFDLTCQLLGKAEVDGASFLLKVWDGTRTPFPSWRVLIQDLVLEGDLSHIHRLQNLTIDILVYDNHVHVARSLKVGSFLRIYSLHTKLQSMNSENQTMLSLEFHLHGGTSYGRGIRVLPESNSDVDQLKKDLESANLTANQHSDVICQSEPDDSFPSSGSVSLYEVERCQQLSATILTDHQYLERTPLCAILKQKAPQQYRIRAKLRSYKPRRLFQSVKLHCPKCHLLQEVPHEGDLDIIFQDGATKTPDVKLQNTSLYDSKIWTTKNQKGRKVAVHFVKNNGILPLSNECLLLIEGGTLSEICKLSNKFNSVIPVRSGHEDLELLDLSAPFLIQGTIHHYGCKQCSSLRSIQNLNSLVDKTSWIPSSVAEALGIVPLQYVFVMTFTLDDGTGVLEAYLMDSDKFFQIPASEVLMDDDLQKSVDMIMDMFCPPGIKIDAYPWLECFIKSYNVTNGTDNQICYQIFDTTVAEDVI

POT1;TPP1 (WT) = POT1;TPP1 (WT) (Homo sapiens;Homo sapiens, UniProt Q9NUX5;Q96AP0 1-634;3-248, |)
POT1;TPP1-L45 mutant = POT1;TPP1-L45 mutant (Homo sapiens;Homo sapiens, UniProt Q9NUX5;Q96AP0 1-634;3-105+=AAAAA+116-248, |internal_change)
POT1;TPP1-L23 mutant = POT1;TPP1-L23 mutant (Homo sapiens;Homo sapiens, UniProt Q9NUX5;Q96AP0 1-634;3-248, |D62A;G63A;T64A;H65A)

In the case of GGTTAGGGTTAG (ssDNA) [hT12wt, d(GGTTAG)2], the Kd (POT1) is reported as 38.2 ± 4.8 nM, the Kd (POT1;TPP1 (WT)) is reported as 3.8 ± 0.5 nM and the Kd (POT1;TPP1-L45 mutant) is reported as 13.7 ± 5.5 nM. It also gave a Kd (POT1;TPP1-L23 mutant) of 27.3 ± 4.2 nM.
